Laboratory results as given in the nanobody polyreactivity screen of Harvey et al. (2022).

Assay: yeast display, Sf9 membrane polyspecificity reagent, FACS + sequencing; frameworks hold sequencing errors
How it was run: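 Nanobodies came from a synthetic yeast display library in Saccharomyces cerevisiae BJ5465, induced with galactose for 36–48 hours and stained for 1 hour at 4 °C with 10% biotinylated, detergent-solubilized Sf9 membrane reagent. Cells were enriched on streptavidin microbeads and then FACS-sorted, with low and high (top ~1%) gates set on anti-HA fluorescence for expression and streptavidin fluorescence for reagent binding. Each polyreactivity label reflects the gate a clone came from. Genes were amplified by colony PCR, sequenced by MiSeq 2 × 250 and filtered by CDR length.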

Sequence | polyreactivity (PSR sort gate)
QVQLVESGGGLVQAGGSLRLSCAASGYILRRNAMGWYRQAPGKERELVARINSSGGSTYYADSVKGRFTISRDNAKNTVYLQMNSLKPEDTAVYYCAKSYYRGRDYWGQGTQVTVSS | high polyreactivity
QVQLVESGAGLVQAGGSLRLSCAASGFIFYIYAMGWYRQAPGKEREFVAVISSSGGITYYADSVKGRFTISRDNAKNTFYLQMNSLKPEDTAVYYCARDTEGKYVGYGRGGYWGQGTQVTVSS | low polyreactivity
QVQLVESGGGLVQAGGSLRLSCAASGYIFFTYTMGWYRQAPGKERELVAAINGSVGSTYYADSVKGRFTISRDNAKNTVYLQMNSLKPEDTAVYYCAAEVVDFGYSYEWEDDYWGQGTQVTVSS | high polyreactivity
QVQLVESGGGLVQAGGRLRLTCAASGLTFERHAMGWYSQARGKERDVVAAWSGGGTYYADSVKGRFTISRDNAKNTVYLHLNSLKPQDTAVYYCAADYRYYLSIGVNSWGQGTQVTVSS | low polyreactivity
HVQLVESGGGLVQAGGSLRIICAASVRIFYLYAMGWYRRAPGKERELVATINSGGSTKYADSVKGRFTISRDNAKNSVYLQRNSLKPEDTAVYYCNAKRWKDYYPYQSWKYGYWGQGTQVTVSS | high polyreactivity
QVRLVESGGGLVQAGGSLRLSSAASGRIFNGNAMGWYRQAPGKERELVAAINRGGSTNYADSVKGRFTISRDNAKNTVYLQMNSLKPEDTAVYYCAAELLYATRWRRYSGYYDWGQGTQVTVSS | high polyreactivity
QDQLVESGGGLVQAGGSLRLSCAASGSNFDRYTMGWYRQAPGKERELLAAITRRGGSTNYADSVKGRFTISRDNAKFTVYLQMISLKPEDTALYYCARATDLNDKPSWDEYWGQGTQVTVSS | high polyreactivity
QVQLVESGGGLVQAGGSLRLSCAASGRIFVGYAMGWYRQAPGKERELVAAISRSGARTYYADSVKGRFTISRAIAKNTVYLQMNSLKPVDTAVYYCNTVKVLIYSWGQGTQVTVSS | high polyreactivity
HVQLVESGGGLVQAGGSLRLSCAASGFSFDPYAMGWYRQAPGKERELVAAISDGGSTNYPDSVKGRFTISRDNAKNTVYLQRNSLKPEDTAVYYCAVEYWYVRGTFDDWGQGTQVTVSS | low polyreactivity
QVQLVESGGGLVQAGGSLRLSCAASGRIFHYYAMGWYRQAPGKERELVAAIRWSGGDTYYADSVKGRFTISRDNAKNTVYLQMNSLKPEDTAVYYCAAYEHVYEYDYWGQGTQVTVSS | low polyreactivity
QVQLVESGGGLVQAGGSLRLSCAASGSTFNYNPMGWYRQAPGKERELVAAISSSGGSTYYADSVKGRFTISRDNAKNTVYLQMNSLKPEDTAVYYCATGGSSRVRTEGDYWGQGTQVTVSS | low polyreactivity
QVQLVESGGGLVQAGGSLRLICAASGRTFYSYAMAWYRQAPGQERELVAAISSGGTTYYADSVKGRFTISRDNAKNTVYLQMNSLKPEDTAVYYCATSRAWRYRSYYWGQGTQVTVSS | high polyreactivity
QVQLVESGGGLVQAGGSHRLSCAASGSTFDYYAMGWYRQAPGKEREFVASINWNGARTYYADSVKGRFTNSRDNAKNTVYLQMNSLKPEDTAVYYCAKISRTYYRYDYWGQGTQVTVSS | high polyreactivity
QVQLVESGGGLVQAGGSLRLSCAASGRIFPHYARGWYRQAPGKERELFAAINVDGGRTYYADSVKGRFTISRDNAKNTVYLQLTSLKPEDTAVYYCAAKPVLYHEQDYGYAVEFNYWGQGTQVTVSS | low polyreactivity
QVQLVESGGGLVQAGGSLRLSCAASGRIFLVYAMGWYIQAPGKERDLVASISSRGSSTNYADSVKGRFTISRDNANNTDYLQMNSLKPEDTAVYYCAAGVYRPRYQSTAYDYWGQGTQVTVSS | high polyreactivity
QVQLVESGGGLVQAGGSLRLSCAASGSTFTPYVMGWYRQAPGKERELVAAIRRRGGSTYYADSVKGRFTISRDNAKNSVYLQMNSLKPEDTAVYYCATDWSWLSLKFDYWGQGTQVTVSS | high polyreactivity
QVQLVESGGGLVQAGGSLRLSCAASGNTFTFYAMGWYRQAPGKERELVASITGRGGSTYYADSVKGRFTISRDNAKNTVYLQMNSLKPEDTAVYYCNADLPAYGLQGDDYWGQGTQVTVSS | low polyreactivity
QVQLVESGGGLVQAGGSLRLSCAASGSIFYGNAMGWYRQAPGKERELVAAITRRGGRTYYADSVKGRFTISRDNAKNTVYLQMNSLKPEDTAVYYCNKDVGVAVEMGYWGQGTQVTVSS | high polyreactivity
QVQLQESGGGLVQVGGSLRLSCAASGTIIIYGFLGWNRQAPGKERELVASINLGGITNYADSVKGRFTISRDNAKNTVYLQMISLKPEDTAVYYCAAYVVTGQNYGYWGQGTQVTVSS | low polyreactivity
QVQLVESGGGLVQAGGSLRLSCAASGRTFSVYAMVWYRQAPGKERELVADITRRGGSTTYADSVKGRFTISRDNAKNTVDLQMNSLKPEDTAVYYFNADGKAGGDYDYWGQGTQVTVSS | low polyreactivity
PVQLVESGGGLVEAGGSLLLSCAASGSTFREYTMGWYRQAPGKERELVAAITNSGGSTYYADSVKGRFTISRDIAKYTVYLQMNSLKPDDTSVYYFAAEVGIVDYDYWGQGTKVTVSS | low polyreactivity
QVQLVESGGGLVQAGGSLRLSCAASGRIFYSYAMGGYRQAPGKERELVAAISSAGSTYYADSVKGSFTISRDNAKNTVYLQMNSLKPEDTAVYYSAKGIWPYHGYRLQRVYDSWGQGTQVTVSS | high polyreactivity

Sequence | polyreactivity (PSR sort gate)
QVQLVESGGGLVQAGGSLRLSCAASGSIFPYNAMGWYRQAPGEFVAAISYSSGSTYYADSVKGRFTISRDNAKNTVYLQMNSLKPEDTAVYYCAAGSWYPPSYVWLGRYDYWGQGTQVTVSS | low polyreactivity
QVQLVESGGGLVQAGGSLRLSCAASGSTFQRYVMGWYRPAPGKERELVAAITRTGASTYYADSVKGRFTISRDYAKNTVDLQMNSRKPEDTAGYYCAARYPLGSYTYDFWGQGTQVTVSS | high polyreactivity
QVQLVESGGGLVQAGGSLRLSCAASGRIFSYNAMGWYRQAPGKERELVAAISSDGSTYYADSVKGRFTISRDNAKNTVYLQMNRLKPEDTAVYYCAAYPRVNGNIHSTGDYWGQGTQVTVSS | low polyreactivity
QVQLVESGGGLVQAGGSLRLSCAASGSTFFVNAMGWYRQAPGKERELVAAISTSGGRTYYADSVKGRFTISRDNAKNTVYLQMNSLKPEDTAVYYCAAFLRSPKGYYYWGQGTQVTVSS | high polyreactivity
QVQLVESGGGLVQAGGSLRLSCAASGYILRNAMGWYRQAPGKERELVAAIRFRGGSTSYADSVKGRFTISRYNAKNTVYLQMKSLKPEDTAVYYCNALWWVIRPYQRHDYWGQVTQVTVSS | low polyreactivity
QVQLVESGGGLVQAGGSLRLSCAASGRTFYANLMGWYRQAPGKERELVAAITYSGGSTYYADSVKGRFTISRDNATITVYLPMSSLKPEDTAVYYCAADNVSTFYYWGQGTQVTVSS | low polyreactivity
QVQLVESGGGLVQAGGSLRLSCAASGIIFARYAMGWYRQAPGKERELVASINWTGGNTYADSVKGRFTISRDNAKNTVYLQMNSLKPEDTAVYYCARDFSPGSSDPKASISFDHWGQGTQVTVSS | low polyreactivity
QVQLVESGGGLVQAGGSLRLSCAASGITFYRYAMGWYRQAPGTEREVVATITSGGSTYYADSVKGRFTISRDNAKNTVYLQMNSLKPEDTAVYYCAAESVWTWYYTTAGMDYWGQGTQVTVSS | high polyreactivity
QVQLVESGGGLDQAGGSLRLSCAASGSTFRNNAMGWYRQAPGKERELVAAISRGGGSTYYADSVKGRFTISRDNAKNNVYLQMTSLKQDDTAVYDCARRPTGIYDYWGQGTQVTVSS | high polyreactivity
QVQLVESGGGLVQAGGSLRLSCAASGSIFGTNAMGWYRQAPGKERELVAAISLSTGSTYYADSVKGRFTISRDNAKNNVYLQMNSLKPEYTAVYYCAAYYVTPIYYYWGQGSQVTVSS | low polyreactivity
QVQLVESGGGLVQAGGSLRLSCADSGRTFKSYAMGWYRQAPGKERELVAAISSSGGRTFYADSVKGRFTISRDNAKNTVYLQMNSLKPEDTAVYYCNARGFYRGYTYYYWGQGTQVTVSS | high polyreactivity
QVQLVESGGGLVQAGGSLRLSCAASGSIIRKYAMGCYRPAPGKERELVAAITSGGRTYYADSVKGRFTISRDNAKNTVYLQMNSLKPEDTAVYYCNARVRGYYEYNYWGQGTQVTVSS | high polyreactivity
QVQLVESGGGLVQAGGSLRLSCAASGITFGRYAMGWYREAPGKERELVAAISRRGGSTHYADSVKGRFTISRDNAKNTVYLQMNSLKPEDTAVYYCNASPYRYRPSEYDYWGQGTQVTVSS | high polyreactivity
QVQHVESGGGLVQAGGSLRLSCAASGSILRSYAMGWFRQAPGKERELVAVINGSGGRTYYADSVKGRFTISRDNEKNTVYLQMISLKPEDTAVYYCNADPGGRYPRRGYAHEGDYWGQGTQVTVSS | low polyreactivity
QVQLVESGGGLVQAGGSLRLSCAASGRTFTGNALGWYRQAPGKERELVAAISQRGGRTNYADSVKGRFTISRDNAKNTVYLQMNSLKPEDTAVYYCAADLGYYYFFGSNYAYDYWGQGTQVNVSS | low polyreactivity
QVQVEESGGGVVQAGGSLRLSCAAYGRIFFRNAMGWYRPAPGKERELVAVINTGGSTNYADSVKGRFTISRDNAKNTVYLQMNRLKAEDTAVYYCAVDRASRRTYNQYGYWGQGTQVSVSS | high polyreactivity
QVQLVESGGGLVQAGGSLRLSCAASGSIFFYNAMGWYRQAPGKERELVAAITTRGGSTYYADSVKGRFTISRDNAKNTVYLQMNSLKPEDTAVYYCARSSRGKLDYWGQGTQVTVSS | low polyreactivity
QVQLVESGGGLVQAGGSLRLSCAASGSIFKGYAMGWYRQAPGKERELVAAITYSGGSTYYADSVKGRFTISRDNAKNTVYLQMNSLKPEDTAVYYCAADSEQDNLRYYRWVWYYYWGQGTQVTVSS | low polyreactivity
QVQLQESGGGLVQAGGSLRLSCAASGTMSDRPGMGWYRQAPAKNAIVATIDRGTNTNYADSVKGRFTISRDNAKNTVSLQMNSLKPEDSAVYNCAAVGRYYFSLDYWGPGTQVTVSS | low polyreactivity
QVQLVDSGGGLVQPGGSLRLRCAASGGIFLQNAMGWYRQAPGTERELVAAISWSAGSTYYADSVKGRFTISRDNAKNTVYLDMNCLKPEDTAVYYCAAAGSNFTVWYGYYYWGQGTQVTVSS | low polyreactivity
QVQLVESGGGLVQAGGSLRLSCAASGSTISYYAMGWYRQAPGKERELVAGISGSTGTTYYADSVKGRFTISRDNAKNTVYLQMNSLKPEDTAVYYCAKLFPVARPQYGYWGQGTQVTVSS | low polyreactivity
